Measurements published in US7611693B2, “Mechanism-based targeted pancreatic beta cell imaging and therapy” (Board of Regents, The Univerisity of Texas System, priority 2003, dated 2009).

Key:
[1] = Animal studies: acute toxicity at the given doses; format: in vivo
Text: (§1) The present disclosure addresses at least in part some deficiencies in the prior art by providing novel DTPA-antidiabetic conjugates useful for imaging beta-cell function. Through binding of radiolabeled conjugates, such as ^99mTc-DTPA-antidiabetic conjugates, for example, to pancreatic beta receptors, detectable by gamma scintigraphy, pancreatic function is monitored. Four DTPA-antidiabetic conjugates have been synthesized and evaluated. […] These agents are labeled with isotopes in order to assess beta cell function in diabetic or insulinoma patients both pre- and post-treatment. These compositions and methods are useful to provide early diagnosis as well as monitoring of response of pancreatic disease during treatment.

[2] = test system: pancreatic beta cells; assay: Animal studies: selective imaging of pancreatic beta cells; format: in vivo
Text: as §1

[3] = test system: pancreas; assay: Scintigraphic imaging in rodents (planar gamma imaging); format: in vivo; settings: normal rat and 13762 tumor-bearing rats, 300 μCi via tail vein, FIGS. 36-44
Method: Scintigraphic imaging in rodents was conducted as follows:
Female Fischer 344 rates (150-175 g) (Harlan Sprague-Dawley, Inc., Indianapolis, Ind.) were inoculated subcutaneously in the right leg with breast cancer cells (10^6 cells/rat) from the 13762 NF cell line (known as DMBA-induced breast cancer cell line). Scintigraphic imaging was serially performed on day 14 after inoculation. Planar images were obtained at 0.5, 1 and 2 hours after injection of 300 μCi of ^99mTc-DTPA-NGN or ^99mTc-DTPA-GLP via tail vein. Control groups were given ^99mTc-DTPA. Imaging was conducted with a gamma camera from Digirad (2020tc Imager, San Diego, Calif.) equipped with a low-energy parallel-hole collimator. The field of view is 20 cm×20 cm with an edge of 1.3 cm. The intrinsic spatial resolution is 3 mm and the matrix is 64×64. The system is designed for a planar image with sensitivity of 56 counts/second (cps)/MBq and spatial resolution of 7.6 mm.

[4] = test system: pancreas; settings: rat, in vivo, iv
Text: FIG. 47 is a graphical representation comparing pancreas uptake for ^99mTc-DTPA and ^99mTc-DTPA-NGN in breast tumor-bearing rats (n=3/time interval, 20 μCi, IV, p=0.11, 0.05, and 0.01).
FIG. 48 is a graphical representation of pancreas to muscle count density ratio of ^99mTc-DTPA and ^99mTc-NGN in breast tumor bearing rats (n=3/time interval, μCi/rat, IV, p=0.19, 0.19, and 0.029).
Male (n=4) New Zealand white rabbits (Raynichols Rabbitry, Lumberton, Tex.) were inoculated with VX-2 cells (rabbit driven mammary squamous cell carcinoma). At day 14 post-inoculation, scintigraphic imaging studies were conducted with ^99mTc-DTPA-NGN (1 mCi, iv). Computer outlined region of interest was used to analyze target-to-nontarget ratios.

CC(C)[C@H]1CC[C@H](C(=O)N[C@H](Cc2ccccc2)C(=O)NCCNC(=O)CN(CCN(CCN(CC(=O)O)CC(=O)NCCNC(=O)[C@@H](Cc2ccccc2)NC(=O)[C@H]2CC[C@H](C(C)C)CC2)CC(=O)O)CC(=O)O)CC1 [DTPA-nateglinide, DTPA-Nateglinide]
acute toxicity [1]: no acute toxicity

DTPA-Glipizide
selective imaging of pancreatic beta cells [2]: able to selectively image pancreatic beta cells

^99mTc-DTPA-glipizide
visualization of pancreas by planar scintigraphy [3]: pancreas could be visualized

CC(C)[C@H]1CC[C@H](C(=O)N[C@H](Cc2ccccc2)C(=O)NCCNC(=O)CN(CCN(CCN(CC(=O)O)CC(=O)NCCNC(=O)[C@@H](Cc2ccccc2)NC(=O)[C@H]2CC[C@H](C(C)C)CC2)CC(=O)O)CC(=O)O)CC1 [^99mTc-DTPA-nateglinide, metal not drawn]
pancreas uptake compared with control groups [4]: pancreas uptake was higher than control groups
